# System: MS2 coat protein
# Assay: apparent KD of MS2 coat protein; designed switch direction (-1 OFF switch, 1 ON switch): -1; higher = weaker reporter binding
# How it was run: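 On Illumina chips, designed RNA switches with common flanks were made by stalled E. coli RNA polymerase. Titrations with SNAP-549-labelled MS2 coat protein, doubling from 0.7 or 1.5 nM to 3 µM, were done with no input, with 200 uM small-molecule ligand, or with an oligonucleotide input. Apparent KD is the median per design over clusters, from curve fits of normalised cluster fluorescence.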
# [1] = input ligand: microRNA oligo, concentration not stated
# [2] = Eterna round: R95, input ligand: microRNA oligo, concentration not stated
# [3] = Eterna round: R95, input ligand: FMN 200 uM
# [4] = Eterna round: R95, input ligand: none
Sequence,apparent KD of MS2 coat protein (input ligand: FMN 200 uM),apparent KD of MS2 coat protein [1],apparent KD of MS2 coat protein (input ligand: none),apparent KD of MS2 coat protein [2],apparent KD of MS2 coat protein [3],apparent KD of MS2 coat protein [4]
"AAAAGGCAGGGAGGAUAUGCUUGCCUGGGUCGUCUUCAAACAUGAGGAUCACCCAUGUAGUCGACGCAGAAGGCCCUCAAAGCC [Mat - Exclusion NG 2 - Mod of JL - D61] (Eterna round: R96, puzzle: Exclusion NG 2)",65.2 nM,12.1 nM,16.5 nM,–,–,–
"UUUAAUGGAAUUAAGAUCACAUGAGGAUCACCCAUGUAUAUAUAGGAUAUCAGCUCGUUUAGAGCUGAGAAGGAUAUAUACAUA [ExNG3/6-B2] (Eterna round: R96, puzzle: Exclusion NG 3)",90.1 nM,119 nM,356 nM,–,–,–
"AGUAACUCAAGAGGAUAUCACAUGAGGAUCACCCAUGUAUAGCGCGCUAUGCUAGUCCUCGUAUUUGAGAAGGUUUGAUAAAUG [JL ViennaUCT Quve mod 2] (Eterna round: R96, puzzle: Exclusion NG 2)",16.8 nM,13.1 nM,17.2 nM,–,–,–
"CAUACACAUGAGGAUCACCCAUGUGAGGAUAUUCGCGCGCGCGCCCGGGCGCGCGCGCGGAGAAGGCACGUGCG [My first try] (Eterna round: R97, puzzle: Exclusion 1)",76.7 nM,–,51.2 nM,–,–,–
"CUUGUUUAUGUAGGAUAUGCCUGGCGUGCCUUUGCAGAAGGACAUGAGGAUCACCCAUGUACAUGAGGAUCACCCAUGUUCGCA [salish99_ExNG1_r04_102] (Eterna round: R96, puzzle: Exclusion NG 1)",836 nM,455 nM,825 nM,–,–,–
"GCUCGCGGGCAAGGAUAUCCUACGCUGUUCUGGCCCGUGUCUGUUACAUGAGGAUCACCCAUGUGGGAGAAGGUGCACCAGGGC [Design 46] (Eterna round: R96, puzzle: Exclusion NG 2)",19.7 nM,11.9 nM,19.1 nM,–,–,–
"GCGCAAACGCCAAAAGGCGAAACAACAUGAGGAUCACCCAUGUAGGAUAUCGAUUGCUUUGCAGUCGAGAAGGACAAAAUGCGC [JL ENG3 3.80 Mod 6] (Eterna round: R96, puzzle: Exclusion NG 3)",11.6 nM,10.6 nM,15.7 nM,–,–,–
"ACUGGUGCAGGAUAUACAAUCGUGCUUCGGCACGUAAGGUCACAUGAGGAUCACCCAUGUAGAAGGGCACCAGU [E2/2-D1] (Eterna round: R97, puzzle: Exclusion 2)",177 nM,–,26.2 nM,–,–,–
"UGUUCGCGAGGAUAUGCAUUCGAGUCCAUUACGUGUCUGGGACUUGAGGAUCACCCAAGUAGAAGGCGUCUCAC [salish99_ex2_r4_645] (Eterna round: R97, puzzle: Exclusion 2)",115 nM,–,122 nM,–,–,–
UUUUAACAUGAGGAUCACCCAUGUGAGGAUAUCGAAAUUUAUAUUAAUAUUAUUUAAACGAGAAGGCACAUUUU [JMF 43] (puzzle: Exclusion 1),–,–,–,70.4 nM,–,–
"GUCAGCUCGUCAGGAUAUACAUGAGGAUCACCCAUGUGAUCAAUAGCAGCUUCGGCUGCAUACAUGUAGAAGGGACGAGCUGAC [ENG2/6-B1] (Eterna round: R96, puzzle: Exclusion NG 2)",55.6 nM,18.4 nM,35.5 nM,–,–,–
"ACCUCUACGCUUUCCAAGGGUAGACCUGGUGUUUGUCACACAUGAGGAUCACCCAUGUGCACUGUGCGAGUCGAACA [solution 38] (Eterna round: R96, puzzle: Sensor v2, turn-off variant 2)",49.5 nM,40.2 nM,50.6 nM,–,–,–
"UGUUGUUACGCAGGAUAUGUAUGAGGAUCACCCAUAAAACACACACUCCCAUGAGGAUCACCCAUGUAGAAGGGCGGGUUAACA [pwkr exNG2 2xF5 1xFMN.8] (Eterna round: R96, puzzle: Exclusion NG 2)",124 nM,54.9 nM,80.8 nM,–,–,–
"CUUAAUUGUGACAUGGGUGACAUGAGGAUCACCCAUGUCACAAGCUUUUUGCUCGUCUUAUAAUUAACCCAUGUCAC [Stov1/13-A3] (Eterna round: R97, puzzle: Sensor, turn-off variant 1)",30 nM,–,33.4 nM,–,–,–
AAGAAGAUAGGAUAUACGAGGAGAGAAGAGAAGAAAGGAGGACAUGAGGAUCACCCAUGUAGAAGGAUCAGGAA [JR_Exclu2_Sub061] (puzzle: Exclusion 2),–,–,–,41 nM,50.2 nM,40.5 nM
"AGAAGUAUAGGAUAUACGUCUGCGCACAUGAGGAUCACCCAUGUCGUGUUCCGUGGCAGAGUAGAAGGGUACGGAC [EX5 B.11] (Eterna round: R97, puzzle: Exclusion 5)",305 nM,–,219 nM,–,–,–
"CUCUUGUGAGGAUAUCGAAGAAAAGAAAAGAAAGAAAAGAACGAGAAGGCACAUGAGGAUCACCCAUGUAAGAA [EteRNA is fun!] (Eterna round: R96, puzzle: Exclusion 4)",127 nM,30.4 nM,39.4 nM,–,–,–

Sequence,apparent KD of MS2 coat protein (input ligand: FMN 200 uM),apparent KD of MS2 coat protein [1],apparent KD of MS2 coat protein (input ligand: none),apparent KD of MS2 coat protein [2],apparent KD of MS2 coat protein [3],apparent KD of MS2 coat protein [4]
"ACCUUACUGGUCAGGAUAUACAGUCUUUGGUGUGUGUAGAAGGGACAUGAGGAUCACCCAUGUAGGUUGUUUUA [alecazam62b] (Eterna round: R97, puzzle: Brourd's mod of Exclusion 4)",237 nM,–,165 nM,–,–,–
"AGCCUAGCAGGAUAUGCCCGGGAUAACAUGAGGAUCACCCAUGUGACUGAUUGAUGUCCUGCAGAAGGGCUAGGGA [JL-EX5-4.01 ViennaUCT mod] (Eterna round: R97, puzzle: Exclusion 5)",154 nM,–,25.9 nM,–,–,–
CUUUUGUGAGGAUAUCAGUAGUUAAUAAAUAAAAUUACUACUGAGAAGGCACAUGAGGAUCACCCAUGUUCCUC [salish99_ex3_r3_075] (puzzle: Exclusion 4),–,–,–,39.4 nM,–,–
CGGUGCUGAGGAUAUACAUGAGGAUCACCCAUGUGUGCCAGCUAGCUGACUGGCGCUUGUAGAAGGCAGUACUG [JL-ex3-2.12 Brourd mod] (puzzle: Exclusion 3),–,–,–,11.4 nM,–,–
"UGUGUGCUGCGAGGAUAUACAUGAGGAUCACCCAUGUAAAUGUGUGAGGCUUUGCCUCACACAAUGUAGAAGGCGCAGUACACU [Mat - Exclusion NG 2 - Mod of JL - D4] (Eterna round: R96, puzzle: Exclusion NG 2)",16.9 nM,9.63 nM,11.6 nM,–,–,–
"CGCGUAGGAGGAUAUAUGGCAUACAACAUGAGGAUCACCCAUGUAGUCGCACGUUGGGAUAUAGAAGGCCUGCGAA [Eternabot (L1) Solution 87] (Eterna round: R97, puzzle: Exclusion 5)",18.3 nM,–,20 nM,–,–,–
"GUUGUGUAAGGAUAUGCCUGGCCGUGAGGCCAGAUUGAAUAGCAGAAGGUACAUGAGGAUCACCCAUGUACGGG [salish99_ex4_4_001] (Eterna round: R97, puzzle: Exclusion 4)",109 nM,–,22.7 nM,–,–,–
"AGUACUAACACGCCUGUGUUAGUACAAUAAGCUUGUGAAACAUGAGGAUCACCCAUGUCCUCAUAAGCUCGUCUUAU [salish99_TOv2_r3_077] (puzzle: Sensor v3, turn-off variant 2)",–,–,–,671 nM,16.3 nM,15.4 nM
"ACACAUGAGGAUCACCCAUGUCGGGUCAUAUCCUUCGAGGGCUAGGAUAUCGGGACUACGAAGCCCGAGAAGGAGCACUCGUUA [Ceorsobi] (Eterna round: R96, puzzle: Exclusion NG 3)",251 nM,66.3 nM,105 nM,–,–,–
AUCAUGUCAGGAUAUAUGACAUGGCUCUUCGGAGCAAGAUCAUAGAAGGGACAUGAGGAUCACCCAUGUAGAUC [Ex4-3: 23] (puzzle: Exclusion 4),–,–,–,195 nM,41.9 nM,188 nM
"GGAUCGAAUGUGAGGAUAUGCUGGUCCUUGGAUCAGCAGAAGGCACAUGAGGAUCACCCAUGUGAUCAAGAUCC [Eli bmx4 4.77] (Eterna round: R97, puzzle: Brourd's mod of Exclusion 4)",58.3 nM,–,910 nM,–,–,–
"AAGAAGAAGUAAGGAUAUGAAGAUCUGGUGGUGACAUGAGGAUCACCCAUGUGAAAACGAUGAGAUCAGAAGGUACAAGAAGAA [AK ExNG2-3.4] (Eterna round: R96, puzzle: Exclusion NG 2)",86.4 nM,65.3 nM,77.8 nM,–,–,–
"AUCGUGCAGCUUUGCUGUACGAGUACAUGAGGAUCACCCAUGUAGGAUAUGGUACGCAAAGCGUGCUAGAAGGAUAUGAGAAAU [Mat - Exclusion NG 3 - Mod of JL - D99] (Eterna round: R96, puzzle: Exclusion NG 3)",30.7 nM,18.8 nM,36.3 nM,–,–,–
"AUCCUUAACAAGGAUAUCGGGCGGGUUUUUGUUUGAGAAGGUGUGACAUGAGGAUCACCCAUGUGGCGCGUGGG [-22, -20.4 kcal, A 22%] (Eterna round: R97, puzzle: Exclusion 6)",285 nM,–,887 nM,–,–,–
"AUAUAGUCAGGAUAUACAUGAGGAUCACCCAUGUGGUAGUAGAUACAGUAGAGAUAGAGUAGAAGGGACGAUGA [EX3 #24] (Eterna round: R97, puzzle: Exclusion 3)",113 nM,–,31 nM,–,–,–
UAAAAGCUAGGAUAUACAUGAGGAUCACCCAUGUCACGGGUCCACUCAUCCUAUACGUGUAGAAGGAGCGACCC [Ceriza] (puzzle: Exclusion 3),–,–,–,20 nM,–,–

# From the supplement of paper PMC9170038
